# Source: US20240173442A1, “COMBINATION THERAPY” (Hoffmann-La Roche Inc., priority 2021, published 2024)
# B1: CH1A1A: CEA-split-DOTAM-VH/VL pair targeting CH1A1A: P1AF0171 (VH-AST) plus P1AD8592 (VL) (antibody, V domains shown)
# VH: QVQLVQSGAEVKKPGASVKVSCKASGYTFTEFGMNWVRQAPGQGLEWMGWINTKTGEATYVEEFKGRVTFTTDTSTSTAYMELRSLRSDDTAVYYCARWDFAYYVEAMDYWGQGTTVTVSS
# VL: DIQMTQSPSSLSASVGDRVTITCKASAAVGTYVAWYQQKPGKAPKLLIYSASYRKRGVPSRFSGSGSGTDFTLTISSLQPEDFATYYCHQYYTYPLFTFGQGTKLEIK
# modifications: split DOTAM-binding domains and constant regions lack entries
# Assays:
# SC BxPC3 tumors [1] = assay: Protocol 185: biodistribution of 212Pb-DOTAM after CEA-split-DOTAM-VH/VL targeting T84.66 or CH1A1A; type: in vivo, SCID mice; conditions: 6 hours after injection
# Method: (§1) The in vivo distribution of ^212Pb-DOTAM was assessed 6 hours after the radioactive injection.
# (§2) Solid xenografts were established in each SCID mouse on study day 0 by SC injection of 5×10^6 cells (passage 27) in RPMI/Matrigel into the right flank. Twenty-two days after tumor cell injection, mice were sorted into experimental groups with an average tumor volume of 224 mm^3. The ^212Pb-DOTAM was injected on day 28 after inoculation, at which point the average tumor volume had reached 385 mm^3.
# All mice were sacrificed and necropsied 6 hours after injection of ^212Pb-DOTAM, and the following organs and tissues harvested for measurement of radioactive content: blood, skin, spleen, pancreas, kidneys, liver, muscle, tail, and tumor. Collected tumors were split in two pieces: one was measured for radioactive content, and the other put in a cryomold containing Tissue-Tek® optimum cutting temperature (OCT) embedding medium, and put on dry ice for rapid freezing. Frozen samples in OCT were maintained at −80° C. before cryosectioning, immunofluorescence staining, and analysis using a Zeiss Axio Scope.A1 modular microscope.
# SC BxPC3 tumors [2] = assay: Protocol 189: biodistribution of 212Pb-DOTAM after bi-paratopic (T84.66 and CH1A1A) CEA-split-DOTAM-VH/VL pairs; type: in vivo, SCID mice; conditions: 6 hours after injection
# Method: This bi-paratopic combination precludes formation of the full Pb-DOTAM binder on soluble CEA that only expresses one of the two epitopes (e.g. T84.66), thereby mitigating potential adverse effects thereof, such as increased circulating radioactivity and associated radiation-induced toxicity, and decreased efficacy from competition with off-tumor targets.
# as §1
# as §2, with “31)” for “27)”, “Fourteen” for “Twenty-two”, “343” for “224”, “22” for “28”, “inoculation;” for “inoculation, at which point”, “557 mm^3 on day 21.” for “385 mm^3.”
# All mice were sacrificed and necropsied 6 hours after injection of ^212Pb-DOTAM, and the following organs and tissues harvested for measurement of radioactive content: blood, skin, spleen, pancreas, kidneys, liver, muscle, tail, and tumor.
molecule,measurement,setting,value
B1,tumor accumulation of ^212Pb,SC BxPC3 tumors [1],40 % ID/g
same,tumor accumulation of ^212Pb,SC BxPC3 tumors [2],37 % ID/g
